Assay results reported in patent publication US5422095A, “Low molecular weight polysaccharide complexes for radiation diagnosis” (Nihon Medi-Physics Co., Ltd., priority 1991, dated 1995).
Each block holds one compound with its values, some of them ahead of it.

Experiments:
heart = assay: Contrast enhancement of the heart in rat at 1 hour after intravenous administration, MRI (in vivo test, Test 3); parameters: species or system Sprague-Dawley female rat; conditions: 1 hour after i.v. administration, 0.094 mmol/kg Gd vs 0.1 mmol/kg DTPA-Gd, 1.5T, T1 weighted spin echo
Description: Contrast enhancement of the heart in rat at 1 hour after intravenously administration of GPEN-DTES-Gd (in vivo test)
A solution of GPEN-DTES-Gd (Gd concentration: 75.1 mM) (0.094 mmol/kg in terms of Gd) was administered to a thiopental anesthetized Sprague-Dawley female rat (214 g, 9-weeks old) through a cannula fixed to femoral vein. At 1 hour after administration, the animal was sacrificed by administration of pentobarbital solution (1 ml) through the above cannula, fixed at prone position in the magnetic field of a MRI spectrometer. MRI measurement (transverse sectional view) of the chest region including the heart was carried out.
As a control, DTPA-Gd (MAGNEVIST®) was administered to a Sprague-Dawleyfemale rat (body weight: 204 g, 9-weeks old) through a cannula fixed at femoral vein (0.1 mmol/kg) and the measurement (transverse sectional view) of the chest region including the heart was carried out as described above.
The apparatus was SIGMA (manufactured by GE, U.S.A.) with magnetic field intensity of 1.5T and, as an imaging coil, a 26 cm .phi.bird-cage type head QD coil was used. Imaging was carried out according to spin echo method of T1 weighted (TR/TE, 600/30 msec) under the condition of 10 mm in slice thickness, a resolution of 256×128.

[1] = Relaxivity of GPEN-DTES-Gd and GTRI-DTES-Gd, proton relaxation time by 6.35T NMR (in vitro test, Test 1); assay type: physicochemical; conditions: for R1 (relaxivity on T1): 24° to 26° C., calculated from relaxation times
Description: Relaxivity of GPEN-DTES-Gd and GTRI-DTES-Gd (in vitro test)
An appropriate amount of GPEN-DTES-Gd and GTRI-DTES-Gd were dissolved in distilled water. The relation to water proton exposed to these compounds was determined as a proton relaxation time (T1 and T2, msec) at room temperature (24° to 26° C.) using NMR (6.35T, manufactured by Nihondenshi K. K., Japan).
GPEN-DTES-Gd (2.3 mM) shortened remarkably the T1 value of water about 60 times and the T2 value of water 85 times. And GTRI-DTES-Gd (2.9 mM) shortened remarkably the T1 value of water about 70 times and the T2 value about 85 times. The relaxivity on T1 and T2 [each R1 and R2, (mM.S)^-1 ] were calculated based on the values in Tables 1 and 2.

blood = assay: Relaxation time of GPEN-DTES-Gd in blood in mouse after intravenous administration (ex vivo test, Test 2); parameters: species or system ICR female mouse; conditions: 0.025 mmol/kg in terms of Gd, 15 minutes after administration
Description: Relaxation time of GPEN-DTES-Gd in blood in mouse after intravenous administration (ex vivo test)
GPEN-DTES-Gd (Gd concentration: 75 mM) (0.025 mmol/kg in terms of Gd) was administered to a thiopental anesthetized ICR female mouse (body weight: 44 g) through the tail vein. At 15 minutes after administration, the blood was taken from the aorta descendence, and the relaxation time (T1, msec) of the blood at room temperature (24° to 26° C.) was determined with a 6.35T NMR apparatus (manufactured by Nihondenshi K. K., Japan).
As a control, blood was taken from the aorta descendence of a thiopental anesthetized ICR female mouse (body weight: 55 g) and, according to the same manner, the relaxation time was determined.

[2] = DTPA-Gd lower than Gd itself; cited from earlier work
[3] = in vivo; cited from earlier work
[4] = 2.3 mM in distilled water, 6.35T, room temperature (24° to 26° C.)

Compound: (galactosamino-pentamer)-[1-(p-isothiocyanatebenzyl)-diethylenetriaminepentaacetic acid]gadolinate [GPEN-DTES-Gd]
- MRI signal intensity / contrast effect in the heart relative to DTPA-Gd (MAGNEVIST®) (heart): about 1.8 times
- Shortening of the T1 value of water ([1]; 2.3 mM): about 60 times
- Shortening of the T2 value of water ([1]; 2.3 mM): 85 times
- T1 relaxation time [1, 4]: 55 ms
- T2 relaxation time [1, 4]: 26 ms
- in vitro relaxation effect ([1]; in words, compared with DTPA-Gd): predominantly higher than that of DTPA-Gd
- T1 relaxivity in water ([1]; magnetic field intensity 6.35T, 25° C.): 7.6 (mM.S)^-1
- R1 (relaxivity on T1) ([1]; water, 6.35T): 7.6 (mM · S)^-1
- T1 relaxivity relative to DTPA-Gd ([1]; water, 6.35T, 25° C.): about two
- T1 relaxation time effect in blood compared with control mouse (blood): about 2.3 times
- T1 in blood (blood; tail vein, 6.35T, 24° to 26° C.): 769 ms

- R1 (relaxivity on T1) ([1]; water, 6.35T): 3.9 (mM · S)^-1
Compound: O=C([O-])CN(CCN(CC(=O)[O-])CC(=O)O)CCN(CC(=O)[O-])CC(=O)O.[Gd+3] [DTPA-Gd, (Diethylenetriaminepentaacetic acid)gadolinate]
- relaxivity relative to Gd itself [2]: about 1/2
- excretion into the urine (in words) [3]: rapidly excreted into the urine after administration
